Data reported in publication doi:10.1101/2020.06.12.148387.

Molecular target: SARS-CoV-2 Spike ectodomain (pre-fusion, with proline mutations) (SARS-CoV-2) (UniProt P0DTC2)

## EY6A IgG (antibody)
  plaque reduction neutralisation test (Oxford), SARS-CoV-2, ND50: 30 µg/mL
